From the supplement of paper PMC12042874
± gives the uncertainty stated by the source.

Experiment: amyloid nucleation score (Sup35N fusion, yeast selection) (log enrichment); library NNK3; higher = more nucleation; inactive = no reads after selection
Procedure, shortened: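 Peptides of 20 random codons fused to Sup35N were expressed in psi-negative yeast, induced 24 hours with 100 μM copper sulfate, then grown 7 days at 30°C on medium lacking adenine and uracil. Input and output plasmid inserts were Illumina-sequenced. Nucleation score is the DiMSum log enrichment of output over input reads, centred on the mode score of non-aggregating sequences, excluding sequences with under 100 input reads. Random libraries had three technical output replicates.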

| Substance | amyloid nucleation score |
| --- | --- |
| QCKVCIMLYKGDLRANGWYG | 1.86 ± 0.091 |
| QCLIYLYVFVLPVLEFGMDR | inactive |
| QCMIYYTDKLLKYSSCTRTM | inactive |
| QCPKCDLLMRDSDIRFTHAG | inactive |
| QDFYSACSNIVNST | inactive |
| QEGGRWEPQKGRWESQAYLS | -0.062 ± 0.49 |
| QFIWRLLRDSTKNFTLLSYK | inactive |
| QFSMLMVVLCP | inactive |
| QFVCHHGSPAFPNDGVAKLL | inactive |
| QGIGGATVTFLRLFV | inactive |
| QGLSRIRTKQGLAWIGLYTV | inactive |
| QGNRS | inactive |
| QGSYTAESTVHHWGFKMNNY | 0.754 ± 0.22 |
| QGYMFFCHYIDICS | inactive |
| QHMFQAWFTVNKFSRGECGF | inactive |
| QHRSESIFFVIKSLLLRGCI | inactive |
| QIALSYSCIITRCVCNLCQR | 3.12 ± 0.056 |
| QIMILVCCQTGFWSERARRG | 2.98 ± 0.058 |
| QISFGLLINLSVIFSGLDLV | 0.801 ± 0.27 |
| QKLNIAFRWFWWFCTLSCNS | inactive |
| QLFVRVIWDMP | 0.186 ± 0.45 |
| QLGLIVRNSCLSSIVVKGML | -0.06 ± 0.54 |
| QLLCHYNSSSEFLTQKHRYW | inactive |

| Substance | amyloid nucleation score |
| --- | --- |
| QLMPKRAVKRDYRDSSWSGV | inactive |
| QLMYRE | inactive |
| QLQSYRQGTFGDQYSPSVHS | inactive |
| QLYVTPYLRDVWYDQASSYE | inactive |
| QMDRRTPLM | inactive |
| QMLLDRRGKSTAATRVAPTD | inactive |
| QMSCNQRNISMGFKIGRFYM | 1.5 ± 0.061 |
| QNCIHKRRSLGSTCATEWDV | -0.399 ± 1 |
| QNCQVLKFRAILFNYLLFLT | inactive |
| QNHTVHSARWDNGSTANTTT | inactive |
| QNVFWIVSGTSEWGSALVFG | inactive |
| QNVWSSVDNRWSIVENCTMA | 0.464 ± 0.37 |
| QQHDELCGVHMGSGHF | inactive |
| QRAYVLVTLVFGA | inactive |
| QRMTNFLLGRVSV | inactive |
| QRSSHGPLGCLSDLQLNTLR | -0.882 ± 1.4 |
| QSEICLSWCIQSVGDVVDYR | inactive |
| QSFLATSFSFYFLSPGYVNY | inactive |
| QSFQRSVYFSSKGNTEGLFS | inactive |
| QSGSVCIGSHASLRRAVVRR | inactive |
| QSNFLFLDFANVYSHKQWCL | 1.71 ± 0.066 |
| QSPRDTSPDLRTYCLVA | inactive |
| QSYVRQF | inactive |

| Substance | amyloid nucleation score |
| --- | --- |
| QTRELRSQLLMPFSITDVRS | inactive |
| QTSNMVAWCLSLFRAGRPTK | inactive |
| QTVTRLTNSNSKLYFQPDVA | inactive |
| QVLRSYHYGCYSGCGALHMR | inactive |
| QVNFGRGQRTLVWTGIRCSH | inactive |
| QYCVIMWPCIYFRVTFSF | inactive |
| QYGSLGSTYTSAYLWRLYVL | inactive |
| QYKLFFYWESMV | inactive |
| QYLCWCCVARRPGSGFRTVV | inactive |
| RAFMVSVSHCRMCWIWC | inactive |
| RAGTKLPLYL | inactive |
| RAKVISSWSLPGSSVKSYPA | inactive |
| RANWLGLVTVGS | inactive |
| RARLHSVAINDVHSFTVSLG | 0.004 ± 0.39 |
| RAWVLHCGNGYWYPLGQ | inactive |
| RCDIFTTTFEFREVHCLWVG | inactive |
| RCFGKIC | inactive |
| RCFRTLIRENMKLANTSDMT | inactive |
| RCHISERD | inactive |
| RCICTRFLVPWDSIA | inactive |
| RCLAPGCRIVNRFLSINYKS | inactive |
| RCNGTL | inactive |
| RCVSFTLKIGLIFKQTPSCR | inactive |

| Substance | amyloid nucleation score |
| --- | --- |
| RCWLKRAWVWSQKVSDRSTW | inactive |
| RCYNHFHSI | inactive |
| RDDFYLNFNFNFVRHGTRDS | 1.26 ± 0.15 |
| RDFAR | inactive |
| RDIASQC | -0.698 ± 0.98 |
| RDLMEGRTTLWMNSGTAIWA | inactive |
| RDPSQNTSKHLSNVAFISLY | inactive |
| RDQSVCGLSRGVIRVVGSCG | inactive |
| RDRGKY | inactive |
| RDRPKFII | inactive |
| RDVWDYSREHLYNDDFLIGA | -0.422 ± 0.75 |
| RDYKLVRHHSHKDVLSCILW | inactive |
| REVGDQMIDLSRSYVQSTVG | inactive |
| REVVRDWERCY | inactive |
| RFAVTSVMLTSETRDGFDHA | inactive |
| RFEFDQVFMF | 1.32 ± 0.13 |
| RFFAIL | inactive |
| RFGFSVKFMYDDGMSAVCTS | inactive |
| RFGSVCPDL | inactive |
| RFGVSKLARAS | inactive |
| RFIGFYPLLQGKNAASGRVL | inactive |
| RFILDVMRVAAGFMVSK | inactive |
| RFIVS | inactive |

| Substance | amyloid nucleation score |
| --- | --- |
| RFKVT | inactive |
| RFLFNKRL | -0.029 ± 0.81 |
| RFLFSCCVGL | 2.3 ± 0.06 |
| RFNMCGEYGKVHGLGW | inactive |
| RFPEAVPNKWSGPPTFNPHE | inactive |
| RFSRRYMHGFS | inactive |
| RFSTGDIWRYPDGNMFWTSL | inactive |
| RFSVNGNR | inactive |
| RFSYWGKDRSRVSNL | inactive |
| RFYKRICLLYPTRSEGESGF | inactive |
| RGAPVFCFYKWFSTATCSIA | inactive |
| RGKNVAWWVTSSTKSYSAK | 0.304 ± 0.23 |
| RGLYKVD | inactive |
| RGSCRLVNLEPCRIM | inactive |
| RGSGWRTYVCTGSYALRV | inactive |
| RGSSTIYNETGLLGRLKGM | inactive |
| RGTKAYMGVVCSTPTIFCPN | inactive |
| RHGEIYAHYKMFVCRLDEVR | inactive |
| RHGVTMRLSCQTWHFAFHLR | inactive |
| RHMFVSSSKRWKFSSNTYRT | inactive |
| RHSILVSYFHWWFRDWKPFW | inactive |
| RICSQMLFFRYESRHFWSFV | inactive |
| RIGAYYPMFIFAVLVGSALG | inactive |

| Substance | amyloid nucleation score |
| --- | --- |
| RIHDNVPSIVWFWEPPHPRH | inactive |
| RIMGSPQSDS | inactive |
| RINMELLWIFGGSTWFINRG | 1.93 ± 0.084 |
| RIPTLIFRLILIMFHDFDFQ | inactive |
| RIRCVMFGGRKSRRKLDSVV | inactive |
| RIRKRQCWSFVLLLYCGCVT | inactive |
| RISINGFNNLNYLLS | 1.39 ± 0.1 |
| RITKRRHSVIPCP | inactive |
| RIVNS | inactive |
| RKHLRPQSMRVDSGETLRVL | inactive |
| RKLGLEYGITMSCASLLALR | inactive |
| RKLKHLS | inactive |
| RKLLCWTRDGRIWMRVEGTA | inactive |
| RKLTCTSGLA | inactive |
| RKMDLVDKSMSTIGYLAHHG | -0.63 ± 0.82 |
| RKMMCKWLCNIKGYIIVV | inactive |
| RKNVRMMA | inactive |
| RKSHD | inactive |
| RKYSVG | inactive |
| RLCSFTRYLNGATSANNVKL | inactive |
| RLCSVGLAVYYMACSEYKMR | 0.103 ± 0.29 |
| RLDGCM | inactive |
| RLFKNGSMGRSYGSVYRPV | -0.111 ± 0.81 |

| Substance | amyloid nucleation score |
| --- | --- |
| RLGMWVFWCRL | inactive |
| RLHIVETLSYLNACWPDFSG | inactive |
| RLHVRCNCDLSDGVPRAVCE | 0.599 ± 0.23 |
| RLLSKVSNFREYTSSSVPDV | inactive |
| RLRCLYTSEISVGIGNNWVS | inactive |
| RLSQCRLLVFDGTQVFMCCV | 2.01 ± 0.077 |
| RLTGCRWDSPVTKVNIRWVY | inactive |
| RLTTLPIRSPFTLGYTFARK | inactive |
| RLVAFGRRWDESSKVECMWS | inactive |
| RLVAVVRCYVLCGKIWGKST | -0.484 ± 0.89 |
| RLVSLSPNLLMYSNVLDYLK | inactive |
| RLWICVSQILVILVDALILG | inactive |
| RLWLYR | inactive |
| RLWYGTYWFT | inactive |
| RLYDIVCYSTVVL | 1.99 ± 0.074 |
| RLYKKGRGPFHLTPAPRD | inactive |
| RMFLHLTRNKCVRVKKASQE | inactive |
| RMGIYCGDRFQ | inactive |
| RMNQIRLPGRCTY | inactive |
| RNANSNWSRPVLNAWSLNEV | inactive |
| RNGRKYSIWLVGVSH | inactive |
